The record followed here is US20110177071A1 (PERSEID THERAPEUTICS, published 2011).

The Kd is the equilibrium constant for the complex coming apart. Lower therefore signals tighter binding.

Assay [1] addresses T1, human CD80-murine Ig fusion protein (human).
T1 construct: Bought (Ancell #510-820); also called hCD80-mIg; human CD80-murine IgG
T1 chain: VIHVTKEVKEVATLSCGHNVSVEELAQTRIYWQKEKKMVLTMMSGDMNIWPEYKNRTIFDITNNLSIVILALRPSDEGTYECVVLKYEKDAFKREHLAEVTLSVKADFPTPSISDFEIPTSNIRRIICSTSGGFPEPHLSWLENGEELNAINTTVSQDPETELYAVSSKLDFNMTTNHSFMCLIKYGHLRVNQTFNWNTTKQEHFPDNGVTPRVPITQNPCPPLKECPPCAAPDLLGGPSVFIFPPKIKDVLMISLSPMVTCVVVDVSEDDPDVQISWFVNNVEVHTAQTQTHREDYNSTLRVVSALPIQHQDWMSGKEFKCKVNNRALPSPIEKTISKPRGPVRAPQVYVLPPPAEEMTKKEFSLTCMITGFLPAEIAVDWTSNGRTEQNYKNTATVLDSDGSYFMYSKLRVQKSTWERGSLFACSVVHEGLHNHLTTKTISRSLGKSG
The assay is described as follows: SPR Biacore, hCD80-mIg captured. How it is done: (§1) All Biacore™ analyses were performed on a Biacore™ 2000 system (GE Healthcare) at room temperature (RT, 25° C.). HBS-EP buffer (10 mM HEPES (pH 7.4), 150 mM NaCl, 3 mM EDTA, 0.005% surfactant P20) was used as the flow buffer for all experiments.
(§2) Rabbit anti-mouse IgG antibody (GE Healthcare, #BR-1005-14) was immobilized on CM5 sensor chips (GE Healthcare, #BR-1000-14) according to the manufacturer's protocol. Antibody was diluted to 30 μg/ml in immobilization buffer (10 mM sodium acetate, pH 5.0 (BR-1003-51)). At a flow rate of 5 μl/minute, sensor chip CM5 was activated with a 35 μl injection of a mixture of 1-Ethyl-3-[3-dimethylaminopropyl]carbodiimide hydrochloride (EDC) and N-hydroxysuccinimide (NHS) (made by mixing equal volumes of 11.5 mg/ml EDC and 75 mg/ml NHS) (GE Healthcare, #BR-1000-50), followed by a 35 μl injection of undiluted antibody. Un-reacted sites were quenched with 35 μl of 1M ethanolamine-HCL, pH 8.5 (GE Healthcare, #BR-1000-50). […] CTLA-4 ligands human CD80-murine Ig (hCD80-mIg) (Ancell, #510-820) or human CD86-murine Ig (hCD86-mIg) (Ancell, #509-820) were bound to antibody-coated sensor chips by injection of 10 μl or 16 μl, respectively, ligand solution (2 μg/ml protein in HBS-EP buffer [10 mM HEPES pH 7.4, 150 mM NaCl, 3 mM EDTA, 0.005% (v/v) surfactant P-20, GE Healthcare, #BR-1001-88]) at a flow rate of 10 μl/min.
A general note: SPR reads the build-up and loss of mass on a sensor chip optically.

For assay [2], the target named is T2, full-length human CD86 on HEK293 cells (human, UniProt P42081 24-329).
T2 sequence: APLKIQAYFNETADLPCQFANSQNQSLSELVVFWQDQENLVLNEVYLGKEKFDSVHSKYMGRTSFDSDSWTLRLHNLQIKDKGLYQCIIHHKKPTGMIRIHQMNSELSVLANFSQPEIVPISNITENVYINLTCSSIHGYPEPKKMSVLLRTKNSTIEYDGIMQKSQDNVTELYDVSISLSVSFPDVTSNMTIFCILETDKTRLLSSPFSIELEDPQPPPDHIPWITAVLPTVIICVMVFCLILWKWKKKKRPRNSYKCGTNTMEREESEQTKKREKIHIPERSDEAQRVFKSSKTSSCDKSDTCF
The assay is described as follows: cell-based or functional assay.

Assay [3] addresses T3, human CD86-murine Ig fusion protein (human).
T3 construct: Bought (Ancell #509-820); also called hCD86-mIg
T3 chain: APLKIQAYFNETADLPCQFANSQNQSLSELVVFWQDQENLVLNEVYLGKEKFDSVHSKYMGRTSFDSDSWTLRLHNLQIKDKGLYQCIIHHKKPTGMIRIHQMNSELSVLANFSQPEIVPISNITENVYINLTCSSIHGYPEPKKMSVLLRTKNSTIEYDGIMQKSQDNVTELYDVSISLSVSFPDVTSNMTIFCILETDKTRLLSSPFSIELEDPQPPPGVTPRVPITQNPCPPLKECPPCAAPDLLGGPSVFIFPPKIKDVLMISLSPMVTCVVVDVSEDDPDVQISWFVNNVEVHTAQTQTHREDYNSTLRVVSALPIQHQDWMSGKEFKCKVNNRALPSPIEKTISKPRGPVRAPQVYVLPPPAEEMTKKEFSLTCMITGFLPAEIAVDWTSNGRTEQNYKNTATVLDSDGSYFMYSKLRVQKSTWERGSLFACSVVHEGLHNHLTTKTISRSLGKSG
As to the kind of experiment: SPR Biacore, hCD86-mIg captured. How it is done:
as §1, §2

B1: D2-IgG2 (Fc fusion)
chain: MHVAQPAVVLASSRGIASFVCEYESPHKANEIRVTVLRQANSQVTEVCAMTYMKGDELTFLDDPFCTGTFSGNQVNLTIQGLRAADTGLYICKVELMYPPPYYLGMGNGTQIYVIDPEPCPDSDERKCCVECPPCPAPPVAGPSVFLFPPKPKDTLMISRTPEVTCVVVDVSHEDPEVQFNWYVDGVEVHNAKTKPREEQFNSTFRVVSVLTVVHQDWLNGKEYKCKVSNKGLPAPIEKTISKTKGQPREPQVYTLPPSREEMTKNQVSLTCLVKGFYPSDIAVEWESNGQPENNYKTTPPMLDSDGSFFLYSKLTVDKSRWQQGNVFSCSVMHEALHNHYTQKSLSLSPG
With B1, in assay [1], the “Binding Avidity (Relative to Orencia)” value is greater than 2 fold and the Kd was less than 0.439 nM. Further, the “Mean IC50 (nM), CD4+ T cell proliferation” value (from here on “Mean IC50 (nM)”) in assay [2] worked out at 0.03 nM. In assay [3], the Kd fell in the range of 0.131 to 0.262 nM.

B2: D29-IgG2 (Fc fusion)
chain: MHVAQPAVVLASSRGIASFVCEYEAPHKADEIRVTVLRKADSQVTEVCAMTYMMEDELTFLDDPSCTGTFSGNQVNLTIQGLRAMDTGLYICKVELMYPPPYYLGLGNGTQIYVIDPEPCPDSDERKCCVECPPCPAPPVAGPSVFLFPPKPKDTLMISRTPEVTCVVVDVSHEDPEVQFNWYVDGVEVHNAKTKPREEQFNSTFRVVSVLTVVHQDWLNGKEYKCKVSNKGLPAPIEKTISKTKGQPREPQVYTLPPSREEMTKNQVSLTCLVKGFYPSDIAVEWESNGQPENNYKTTPPMLDSDGSFFLYSKLTVDKSRWQQGNVFSCSVMHEALHNHYTQKSLSLSPG
B2 had a Kd in assay [1] of 0.439 to 1.75 nM. Also, in assay [3], the “Binding Avidity (Relative to Orencia)” value was greater than 40 fold and the Kd was less than 0.131 nM.

B3: D3-15-IgG2 (Fc fusion)
chain: MHVAQPAVVLASSRGIASFVCEYESPGKANEIRVTVLRQADSQVTEVCAMTYMKGDELTFLDDPSCTGTFSGNQVNLTIQGLRAMDTGLYICKVELMYPPPYYLGFGNGTQIYVIDPEPCPDSDERKCCVECPPCPAPPVAGPSVFLFPPKPKDTLMISRTPEVTCVVVDVSHEDPEVQFNWYVDGVEVHNAKTKPREEQFNSTFRVVSVLTVVHQDWLNGKEYKCKVSNKGLPAPIEKTISKTKGQPREPQVYTLPPSREEMTKNQVSLTCLVKGFYPSDIAVEWESNGQPENNYKTTPPMLDSDGSFFLYSKLTVDKSRWQQGNVFSCSVMHEALHNHYTQKSLSLSPG
B3 gave a Kd in assay [1] of 0.439 to 1.75 nM. In assay [2], the “Mean IC50 (nM)” value came to 0.02 nM. For the same molecule, in assay [3], the “Binding Avidity (Relative to Orencia)” value is greater than 40 fold and the Kd was less than 0.131 nM.

B4: D3-6-IgG2 (Fc fusion)
chain: MHVAQPAVVLASSRGIASFVCEYESPGKANEIRVTVLRQAGSQVTEVCAMTYMMGDELTFLDDPSCTGTFSGNQVNLTIQGLRAADTGLYICKVELMYPPPYYLGFGNGTQIYVIDPEPCPDSDERKCCVECPPCPAPPVAGPSVFLFPPKPKDTLMISRTPEVTCVVVDVSHEDPEVQFNWYVDGVEVHNAKTKPREEQFNSTFRVVSVLTVVHQDWLNGKEYKCKVSNKGLPAPIEKTISKTKGQPREPQVYTLPPSREEMTKNQVSLTCLVKGFYPSDIAVEWESNGQPENNYKTTPPMLDSDGSFFLYSKLTVDKSRWQQGNVFSCSVMHEALHNHYTQKSLSLSPG
notes: also called D3-06-IgG2
Turning to B4, the figures for the Kd in assay [1] and in assay [3] were 0.439 to 1.75 nM and 0.131 to 0.262 nM, respectively. Also, the “Mean IC50 (nM)” value in assay [2] is 0.05 nM.

B5: D31-IgG2 (Fc fusion)
chain: MHVAQPAVVLASSRGIASFVCEYEAPHNADEIRVTVLRQAGSQVTEVCAMTYMVEDELTFLDKSICTGTFSGNQVNLTIQGLRAMDTGLYICKVELMYPPPYYLGIGNGTQIYVIDPEPCPDSDERKCCVECPPCPAPPVAGPSVFLFPPKPKDTLMISRTPEVTCVVVDVSHEDPEVQFNWYVDGVEVHNAKTKPREEQFNSTFRVVSVLTVVHQDWLNGKEYKCKVSNKGLPAPIEKTISKTKGQPREPQVYTLPPSREEMTKNQVSLTCLVKGFYPSDIAVEWESNGQPENNYKTTPPMLDSDGSFFLYSKLTVDKSRWQQGNVFSCSVMHEALHNHYTQKSLSLSPG
Take B5: the Kd in assay [1] fell in the range of 0.439 to 1.75 nM; in assay [3], 0.131 to 0.262 nM.

B6: D28-IgG2 (Fc fusion)
chain: MHVAQPAVVLASSRGIASFVCEYEAPHKANEVRVTVLRQAGSQVTEVCAMTYMMEDELTFLDDPSCTGTFSGNQVNLTIQGLRAADTGLYICKVELMYPPPYYLGLGNGTQIYVIDPEPCPDSDERKCCVECPPCPAPPVAGPSVFLFPPKPKDTLMISRTPEVTCVVVDVSHEDPEVQFNWYVDGVEVHNAKTKPREEQFNSTFRVVSVLTVVHQDWLNGKEYKCKVSNKGLPAPIEKTISKTKGQPREPQVYTLPPSREEMTKNQVSLTCLVKGFYPSDIAVEWESNGQPENNYKTTPPMLDSDGSFFLYSKLTVDKSRWQQGNVFSCSVMHEALHNHYTQKSLSLSPG
For B6, the Kd in assay [1] was in the range of 0.439 to 1.75 nM. For the same molecule, in assay [3], the “Binding Avidity (Relative to Orencia)” value was greater than 40 fold and the Kd was less than 0.131 nM.

B7: D3-2-IgG2 (Fc fusion)
chain: MHVAQPAVVLASSRGIASFVCEYESPGKATEIRVTVLRQAGSQVTEVCAMTYMKGDELTFLDDPSCTGTFSGNQVNLTIQGLRAADTGLYICKVELMYPPPYYLGFGNGTQIYVIDPEPCPDSDERKCCVECPPCPAPPVAGPSVFLFPPKPKDTLMISRTPEVTCVVVDVSHEDPEVQFNWYVDGVEVHNAKTKPREEQFNSTFRVVSVLTVVHQDWLNGKEYKCKVSNKGLPAPIEKTISKTKGQPREPQVYTLPPSREEMTKNQVSLTCLVKGFYPSDIAVEWESNGQPENNYKTTPPMLDSDGSFFLYSKLTVDKSRWQQGNVFSCSVMHEALHNHYTQKSLSLSPG
notes: also called D3-02-IgG2; D3-02
As to B7, the figures for the Kd in assay [1] and in assay [3] were 0.439 to 1.75 nM and 0.131 to 0.262 nM, respectively. The “Mean IC50 (nM)” value in assay [2] came to 0.03 nM.

B8: D3-3-IgG2 (Fc fusion)
chain: MHVAQPAVVLASSRGIASFVCEYESPGKANEVRVTVLRQAGSQVTEVCAMTYMKGDELTFLDDPSCTGTFSGNQVNLTIQGLRAADTGLYICKVELMYPPPYYLGFGNGTQIYVIDPEPCPDSDERKCCVECPPCPAPPVAGPSVFLFPPKPKDTLMISRTPEVTCVVVDVSHEDPEVQFNWYVDGVEVHNAKTKPREEQFNSTFRVVSVLTVVHQDWLNGKEYKCKVSNKGLPAPIEKTISKTKGQPREPQVYTLPPSREEMTKNQVSLTCLVKGFYPSDIAVEWESNGQPENNYKTTPPMLDSDGSFFLYSKLTVDKSRWQQGNVFSCSVMHEALHNHYTQKSLSLSPG
notes: also called D3-03-IgG2
With B8, the Kd in assay [1] is 0.439 to 1.75 nM; in assay [3], 0.131 to 0.262 nM. Further, the “Mean IC50 (nM)” value in assay [2] came out at 0.04 nM.

B9: D27-IgG2 (Fc fusion)
chain: MHVAQPAVVLASSRGIASFVCEYESPGKANEVRVTVLREAGSQVTEVCAMTYMVEDELTFLDDPSCTGTFSGNQVNLTIQGLRAADTGLYICKVELMYPPPYYLGLGNGTQIYVIDPEPCPDSDERKCCVECPPCPAPPVAGPSVFLFPPKPKDTLMISRTPEVTCVVVDVSHEDPEVQFNWYVDGVEVHNAKTKPREEQFNSTFRVVSVLTVVHQDWLNGKEYKCKVSNKGLPAPIEKTISKTKGQPREPQVYTLPPSREEMTKNQVSLTCLVKGFYPSDIAVEWESNGQPENNYKTTPPMLDSDGSFFLYSKLTVDKSRWQQGNVFSCSVMHEALHNHYTQKSLSLSPG
B9: the Kd in assay [1] is 0.439 to 1.75 nM. Also, in assay [3], the “Binding Avidity (Relative to Orencia)” value was greater than 40 fold and the Kd is less than 0.131 nM.
